# Measurements taken from IntAct's records for PubMed 18292230.
# B1: E3 ubiquitin-protein ligase CHIP (Homo sapiens), Q9UNE7-1 (parent)
# chain: MKGKEEKEGGARLGAGGGSPEKSPSAQELKEQGNRLFVGRKYPEAAACYGRAITRNPLVAVYYTNRALCYLKMQQHEQALADCRRALELDGQSVKAHFFLGQCQLEMESYDEAIANLQRAYSLAKEQRLNFGDDIPSALRIAKKKRWNSIEERRIHQESELHSYLSRLIAAERERELEECQRNHEGDEDDSHVRAQQACIEAKHDKYMADMDELFSQVDEKRKKRDIPDYLCGKISFELMREPCITPSGITYDRKDIEEHLQRVGHFDPVTRSPLTQEQLIPNLAMKEVIDAFISENGWVEDY
# Variants of: B1
# Conditions: with akt1_human AKT1, P31749
# Chain of akt1_human AKT1, P31749 (P31749 whole entry): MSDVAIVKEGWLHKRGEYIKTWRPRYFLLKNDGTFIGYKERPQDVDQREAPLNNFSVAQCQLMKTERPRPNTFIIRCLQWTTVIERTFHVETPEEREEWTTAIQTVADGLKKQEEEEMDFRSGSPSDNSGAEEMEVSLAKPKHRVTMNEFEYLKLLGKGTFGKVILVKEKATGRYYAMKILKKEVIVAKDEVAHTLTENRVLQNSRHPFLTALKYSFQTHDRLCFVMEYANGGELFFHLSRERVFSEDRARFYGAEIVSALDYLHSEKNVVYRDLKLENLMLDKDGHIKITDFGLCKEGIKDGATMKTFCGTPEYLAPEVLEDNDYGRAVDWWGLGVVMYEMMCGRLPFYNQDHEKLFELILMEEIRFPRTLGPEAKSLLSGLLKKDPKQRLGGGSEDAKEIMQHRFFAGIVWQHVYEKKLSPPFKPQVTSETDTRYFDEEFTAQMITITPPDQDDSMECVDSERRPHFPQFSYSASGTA
row,effect of a mutation on the interaction,Variant
1,disrupting interaction,K30A
